Patent publication US20220308072A1

Experiments:
[1] = target: Recombinant, his tagged full length human frataxin protein (Abcam ab95502) (human) (UniProt Q16595); assay: Simoa sandwich 3-step; capture Ab-3; frataxin 1000 pg/mL
[2] = target: Recombinant, his tagged full length human frataxin protein (Abcam ab95502) (human) (UniProt Q16595); assay: Simoa sandwich 2-step; capture Ab-3; frataxin 55.6 pg/mL
[3] = target: Recombinant, his tagged full length human frataxin protein (Abcam ab95502) (human) (UniProt Q16595); assay: Simoa sandwich 3-step; capture Ab-2; frataxin 10000 pg/mL
[4] = target: Recombinant, his tagged full length human frataxin protein (Abcam ab95502) (human) (UniProt Q16595); assay: Simoa sandwich 3-step; capture Ab-1
[5] = target: Recombinant, his tagged full length human frataxin protein (Abcam ab95502) (human) (UniProt Q16595); assay: Simoa sandwich 2-step; capture Ab-3; frataxin 6.17 pg/mL
[6] = target: Recombinant, his tagged full length human frataxin protein (Abcam ab95502) (human) (UniProt Q16595); assay: Simoa sandwich 3-step; capture Ab-3
[7] = target: Recombinant, his tagged full length human frataxin protein (Abcam ab95502) (human) (UniProt Q16595); assay: Simoa sandwich 3-step; capture Ab-1; frataxin 1000 pg/mL
[8] = target: Recombinant, his tagged full length human frataxin protein (Abcam ab95502) (human) (UniProt Q16595); assay: Simoa sandwich 2-step; capture Ab-3; frataxin 100 pg/mL
[9] = target: Recombinant, his tagged full length human frataxin protein (Abcam ab95502) (human) (UniProt Q16595); assay: Simoa sandwich 3-step; capture Ab-2
[10] = target: Recombinant, his tagged full length human frataxin protein (Abcam ab95502) (human) (UniProt Q16595); assay: Simoa sandwich 2-step; capture Ab-3; frataxin 18.5 pg/mL
[11] = target: Recombinant, his tagged full length human frataxin protein (Abcam ab95502) (human) (UniProt Q16595); assay: Simoa sandwich 3-step; capture Ab-5; frataxin 100 pg/mL
[12] = target: Recombinant, his tagged full length human frataxin protein (Abcam ab95502) (human) (UniProt Q16595); assay: Simoa sandwich 3-step; capture Ab-5; frataxin 1000 pg/mL
[13] = target: Recombinant, his tagged full length human frataxin protein (Abcam ab95502) (human) (UniProt Q16595); assay: Simoa sandwich 2-step; capture Ab-3; frataxin 1000 pg/mL
[14] = target: Recombinant, his tagged full length human frataxin protein (Abcam ab95502) (human) (UniProt Q16595); assay: Simoa sandwich 3-step; capture Ab-4; frataxin 100 pg/mL
[15] = target: Recombinant, his tagged full length human frataxin protein (Abcam ab95502) (human) (UniProt Q16595); assay: Simoa sandwich 3-step; capture Ab-5
[16] = target: Recombinant, his tagged full length human frataxin protein (Abcam ab95502) (human) (UniProt Q16595); assay: Simoa sandwich 3-step; capture Ab-3; frataxin 100 pg/mL
[17] = target: Recombinant, his tagged full length human frataxin protein (Abcam ab95502) (human) (UniProt Q16595); assay: Simoa sandwich 3-step; capture Ab-4
[18] = target: Recombinant, his tagged full length human frataxin protein (Abcam ab95502) (human) (UniProt Q16595); assay: Simoa sandwich 3-step; capture Ab-3; remark: listed apart in the source
[19] = target: Recombinant, his tagged full length human frataxin protein (Abcam ab95502) (human) (UniProt Q16595); assay: Simoa sandwich 3-step; capture Ab-2; frataxin 1000 pg/mL
[20] = target: Recombinant, his tagged full length human frataxin protein (Abcam ab95502) (human) (UniProt Q16595); assay: Simoa sandwich 2-step; capture Ab-3
[21] = target: Recombinant, his tagged full length human frataxin protein (Abcam ab95502) (human) (UniProt Q16595); assay: Simoa sandwich 2-step; capture Ab-3; frataxin 500 pg/mL
[22] = target: Recombinant, his tagged full length human frataxin protein (Abcam ab95502) (human) (UniProt Q16595); assay: Simoa sandwich 3-step; capture Ab-4; frataxin 1000 pg/mL
[23] = target: Recombinant, his tagged full length human frataxin protein (Abcam ab95502) (human) (UniProt Q16595); assay: Simoa sandwich 3-step; capture Ab-4; frataxin 10000 pg/mL
[24] = target: Recombinant, his tagged full length human frataxin protein (Abcam ab95502) (human) (UniProt Q16595); assay: Simoa sandwich 3-step; capture Ab-1; frataxin 10000 pg/mL
[25] = target: Recombinant, his tagged full length human frataxin protein (Abcam ab95502) (human) (UniProt Q16595); assay: Simoa sandwich 2-step; capture Ab-3; remark: listed apart in the source
[26] = target: Recombinant, his tagged full length human frataxin protein (Abcam ab95502) (human) (UniProt Q16595); assay: Simoa sandwich 3-step; capture Ab-3; frataxin 100 pg/mL; remark: listed apart in the source
[27] = target: Recombinant, his tagged full length human frataxin protein (Abcam ab95502) (human) (UniProt Q16595); assay: Simoa sandwich 3-step; capture Ab-3; frataxin 1000 pg/mL; remark: listed apart in the source
[28] = target: Recombinant, his tagged full length human frataxin protein (Abcam ab95502) (human) (UniProt Q16595); assay: Simoa sandwich 2-step; capture Ab-3; frataxin 2.06 pg/mL
[29] = target: Recombinant, his tagged full length human frataxin protein (Abcam ab95502) (human) (UniProt Q16595); assay: Simoa sandwich 2-step; capture Ab-3; frataxin 0.686 pg/mL
[30] = target: Recombinant, his tagged full length human frataxin protein (Abcam ab95502) (human) (UniProt Q16595); assay: Simoa sandwich 3-step; capture Ab-2; frataxin 100 pg/mL
[31] = target: Recombinant, his tagged full length human frataxin protein (Abcam ab95502) (human) (UniProt Q16595); assay: Simoa sandwich 3-step; capture Ab-1; frataxin 100 pg/mL
[32] = target: Recombinant, his tagged full length human frataxin protein (Abcam ab95502) (human) (UniProt Q16595); assay: Simoa sandwich 2-step; capture Ab-3; frataxin 167 pg/mL

UniProt Q16595, sequence (Q16595 42-210): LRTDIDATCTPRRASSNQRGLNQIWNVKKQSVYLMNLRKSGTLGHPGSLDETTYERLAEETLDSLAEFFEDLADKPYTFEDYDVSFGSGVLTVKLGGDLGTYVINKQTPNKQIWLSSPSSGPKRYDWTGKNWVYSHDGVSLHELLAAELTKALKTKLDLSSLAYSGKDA

Question: What does the source list for “Ab-4, mouse monoclonal [17A11] to Frataxin (Abcam ab113691) (antibody)”?
Answer: Ave AEB [1]: 8.02 AEB; S/B [1]: 138; Ave AEB [2]: 3.75 AEB; S/B [2]: 32.6; Ave AEB [3]: 32.9 AEB; S/B [3]: 183; LOD [4]: 23.9 pg/mL; Ave AEB [5]: 0.56 AEB; S/B [5]: 4.87; LOD [6]: 1.59 pg/mL; Ave AEB [7]: 8.74 AEB; S/B [7]: 39.6; Ave AEB [8]: 5.1 AEB; S/B [8]: 67.6; LOD [9]: 5.01 pg/mL; Ave AEB [10]: 1.31 AEB; S/B [10]: 11.4; Ave AEB [11]: 2.02 AEB; S/B [11]: 4.93; Ave AEB [12]: 18.6 AEB; S/B [12]: 45.4; Ave AEB [13]: 29.7 AEB; S/B [13]: 394; Ave AEB [14]: 0.0213 AEB; S/B [14]: 0.93; LOD [15]: 6.44 pg/mL; Ave AEB [16]: 0.68 AEB; S/B [16]: 11.7; LOD [17]: 358 pg/mL; LOD [18]: 2.41 pg/mL; Ave AEB [19]: 7.32 AEB; S/B [19]: 40.7; LOD [20]: 0.44 pg/mL; Ave AEB [21]: 23.7 AEB; S/B [21]: 206; Ave AEB [22]: 0.0589 AEB; S/B [22]: 2.55; Ave AEB [23]: 0.82 AEB; S/B [23]: 35.6; Ave AEB [24]: 30.9 AEB; S/B [24]: 140; LOD [25]: 0.36 pg/mL; Ave AEB [26]: 1.34 AEB; S/B [26]: 16.8; Ave AEB [27]: 12.8 AEB; S/B [27]: 160; Ave AEB [28]: 0.259 AEB; S/B [28]: 2.25; Ave AEB [29]: 0.157 AEB; S/B [29]: 1.36; Ave AEB [30]: 1.02 AEB; S/B [30]: 5.67; Ave AEB [31]: 0.64 AEB; S/B [31]: 2.9; Ave AEB [32]: 11.1 AEB; S/B [32]: 97
